The values that follow come from paper PMC9270183 (The Journal of Experimental Medicine, 2022).

In the test the target is T1, 417N/484K/501Y RBD mutant (SARS-CoV-2, Wuhan-Hu-1 RBD backbone …, 417N | 484K | 501Y).
T1 construct: also called RBD KEN
Kind of test: BLI. The note with it: both partners purified.

B1: V028 (antibody, V domains shown)
VH: QVQLVESGGGVVQPGRSLRLSCAASGFTFSSYGMHWVRQAPGKGLEWVAVVSFDGSDKYYADSVKGRFTISRDNSKNTLYLQMNSLRAEDTALYYCAKGGYSYAYPRYYFDYWGQGTLVTVSS
VL: DIQMTQSPSSLSASVGDRVTITCQASQDISNYLNWYQQKPGKAPKLLIYDASNLETGVPSRFSGSGSGTDFTFTISSLQPEDIATYYCQQHDNLPITFGQGTRLEIK
notes: IgG; donor BRA14; source: recombinant monoclonal IgG, produced and purified as previously described
In turn, B1 showed an equilibrium dissociation constant (Kd) of 44.6 nM.

B2: V031 (antibody, V domains shown)
VH: QVQLVESGGGVVQPGRSLRLSCAASGFTFSSYGMHWVRQAPGKGLEWVAVISYDGSNKYYADSVKGRFAFSRDNSKNTLYLQMNSLRAEDTAVYYCAKGGYSYAYPRYYFDYWGQGTLVTVSS
VL: DIQMTQSPSSLSASVGDRVTITCQASQDISNYLNWYQQKPGKAPKLLIYDASNLETGVPSRFSGSGSGTDFTFTISSLQPEDIATYYCQQHDNLPITFGQGTRLEIK
notes: as for B1
Take B2: binding was put at a Kd of 14.5 nM.

B3: V026 (antibody, V domains shown)
VH: QVQLVESGGGVVQPGRSLRLSCAVSGFTFSSYGMHWVRQAPGKGLEWVAVISYEGSNKYYADSVKGRFTISRDNSKNTLYLQMNSLRAEDTAVYYCAKGGWYGSPTYYFDYWGQGTLVTVSS
VL: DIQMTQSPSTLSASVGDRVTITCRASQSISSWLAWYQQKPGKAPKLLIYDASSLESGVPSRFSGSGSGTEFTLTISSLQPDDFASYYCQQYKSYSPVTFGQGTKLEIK
notes: IgG; donor BRA13; source: recombinant monoclonal IgG, produced and purified as previously described
For B3, the Kd came out at 11.9 nM.

B4: V027 (antibody, V domains shown)
VH: not shown
VL: NFMLTQPHSVSESPGKTVTISCTRSSGSIASNYVQWYQQRPGSAPTTVIYEDNQRPSGVPDRFSGSIDSSSNSASLTISGLKTEDEADYYCQSYDSSNHRVFGGGTKLTVL
notes: as for B1
B4 showed a dissociation constant (Kd) of 37.3 nM.
